Test results from patent publication US11028172 (LEPU BIOPHARMA, dated 2021).

Tests used:
[1] = target: T1, human TIGIT expressed on cells (human, UniProt Q495A1 22-244); assay: cell-based or functional assay
T1 sequence (looked up): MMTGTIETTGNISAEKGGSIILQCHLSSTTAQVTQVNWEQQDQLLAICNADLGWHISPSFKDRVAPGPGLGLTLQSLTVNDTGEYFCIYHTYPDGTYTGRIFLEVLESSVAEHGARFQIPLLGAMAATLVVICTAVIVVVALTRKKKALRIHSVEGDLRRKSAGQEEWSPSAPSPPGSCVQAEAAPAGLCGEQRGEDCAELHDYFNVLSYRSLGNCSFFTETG

human TIGIT-His protein [2] = target: T2, human TIGIT-His protein (human, UniProt Q495A1 22-141); assay: ELISA, human TIGIT-His coated
T2 construct: Recombinant protein; also called human TIGIT-his tag; hTIGIT-His
T2 sequence (looked up): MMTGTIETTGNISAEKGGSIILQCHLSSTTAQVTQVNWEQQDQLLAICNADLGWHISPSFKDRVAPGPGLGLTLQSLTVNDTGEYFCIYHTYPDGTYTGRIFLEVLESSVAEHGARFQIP
Description: To evaluate the binding activity of 76D12B10, the chimeric mAb was subjected to ELISA test. Briefly, microtiter plates were coated with human TIGIT-His protein at 0.5 µg/ml in PBS, 100µl/well at 4° C. overnight, then blocked with 150 µl/well of 1% BSA. Three-fold dilutions of 76D12B10 antibodies starting from 10 µg/ml were added to each well and incubated for 1 hour at 37° C. The plates were washed with PBS/Tween and then incubated with Goat-anti-human IgG antibody conjugated with Horse Radish Peroxidase (HRP) for 30 mins at 37° C. After washing, the plates were developed with TMB substrate and analyzed by spectrophotometer at OD 450 nm.
(§1) ELISA testing was carried out to evaluate the binding of chimeric antibodies to human, mouse, rat, and cyno TIGIT, respectively. Briefly, microtiter plates were coated with human, mouse, rat and cyno TIGIT proteins at 0.5 µg/ml in PBS, 100 µl/well at 4° C. overnight, then blocked with 150 µl/well of 1% BSA. Three-fold dilutions of chimeric antibodies or biotinylated chimeric antibodies starting from 10 µg/ml were added to each well and incubated for 1 hour at 37° C. The plates were washed with PBS/Tween and then incubated with Goat-anti-human IgG Fab antibody conjugated with Horse Radish Peroxidase (HRP) or Streptavidin-HRP for 30 mins at 37° C. After washing, the plates were developed with TMB substrate and analyzed by spectrophotometer at OD 450 nm.

mouse TIGIT protein = target: T3, mouse TIGIT protein (mouse, UniProt P86176 29-148, limits assumed); assay: ELISA, mouse TIGIT coated at 0.5 µg/ml
T3 construct: Recombinant protein coated on the plate
T3 sequence (looked up): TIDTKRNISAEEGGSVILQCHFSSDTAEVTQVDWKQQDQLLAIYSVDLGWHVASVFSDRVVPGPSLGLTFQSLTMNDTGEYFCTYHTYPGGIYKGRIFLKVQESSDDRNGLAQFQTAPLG
Description: as §1

human TIGIT-His protein [3] = target: T2, human TIGIT-His protein; assay: SPR (Biacore) affinity ranking, human TIGIT-His
human TIGIT-His protein [4] = target: T2, human TIGIT-His protein; assay: SPR (Biacore T200), antibody captured on CM5 chip, TIGIT-His as analyte
Description: The binding of the 76D12B10 antibodies to recombinant TIGIT protein (human TIGIT-his tag) was tested with BIACORE™ using a capture method. The 76D12B10 mAbs was captured using CM5 chip. A series dilution of human TIGIT-his tag protein was injected over captured antibody for 1 min at a flow rate of 30 µl/min. The antigen was allowed to dissociate for 300 s. All the experiment were carried out on a Biacore T200. Data analysis was carried out using Biacore T200 evaluation software.

[5] = target: T4, biotin-labeled human TIGIT protein (human, UniProt Q495A1 22-141, biotin-labeled (sites not given)); assay: ELISA blocking assay: CD155-hFc coated, biotin-labeled human TIGIT, antibody titrated
T4 construct: also called recombinant human TIGIT
T4 sequence (looked up): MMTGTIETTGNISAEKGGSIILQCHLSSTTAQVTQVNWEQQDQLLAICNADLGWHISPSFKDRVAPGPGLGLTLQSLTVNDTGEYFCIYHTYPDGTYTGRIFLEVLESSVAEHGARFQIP
Description: To evaluate the blocking effects of Hu02 and Hu06 on recombinant human TIGIT to bind to its receptor CD155, an ELISA based receptor blocking assay was used.
Briefly, microtiter plates were coated with human CD155-hFc protein at 5 µg/ml in PBS, 100 µl/well at 4° C. overnight, then blocked with 150 µl/well of 1% BSA. 50 µl biotin-labeled human TIGIT protein and 3-fold dilutions of Hu02 and Hu06 antibodies starting from 10 µg/ml at 50 µl were added to each well and incubated for 1 hour at 37° C. The plates were washed with PBS/Tween and then incubated with Streptavidin-HRP for 10 mins at 37° C. After washing, the plates were developed with TMB substrate and analyzed by spectrophotometer at OD 450 nm.

human TIGIT-His protein [6] = target: T2, human TIGIT-His protein; assay: ELISA, plate coated with human TIGIT-His, anti-human IgG-HRP, OD 450nm; unit taken from the axis Log[Conc.]/ng/ml
Description: (§2) To evaluate the antigen binding activity, the humanized antibodies were subjected to ELISA test. Briefly, microtiter plates were coated with human TIGIT-his protein at 0.5 µg/ml in PBS, 100 µl/well at 4° C. overnight, then blocked with 150 µl/well of 1% BSA. Three-fold dilutions of humanized antibodies starting from 3 µg/ml were added to each well and incubated for 1 hour at 37° C. The plates were washed with PBS/Tween and then incubated with Goat-anti-human IgG antibody conjugated with Horse Radish Peroxidase (HRP) for 30 mins at 37° C. After washing, the plates were developed with TMB substrate and analyzed by spectrophotometer at OD 450 nm.

human TIGIT-His protein [7] = target: T2, human TIGIT-His protein; assay: as above; remark: listed apart in the source
Description: as §2, with “Hu02 and Hu06” for “the humanized antibodies”, “0.5 hour” for “30 mins”

B1: 76D12B10 chimeric antibody (antibody, V domains shown)
VH: DVQLQESGPGMVKPSQSLSLTCTATGYSITSGYDWHWIRHFPGKKLEWMGFIRDSGSTVYNPSLKGRISITHDTSKNRFFLKLNSVTPEDTATYFCARGLFWYFDVWGTGTTVTVSS
VL: DIQMTQSPASLSASVGETVTITCRTSENIFSYLAWYQQKQGNSPQLLVHNTKTLAEGVPSRFSGSGSGTQFSLKISNLQPEDFGSYYCQHHYGNPLTFGAGTKLELK
notes: Mouse variable regions of hybridoma clone 76D12B10; tested as chimeric mAb (detected with anti-human IgG); also called 76D12B10-Chimera; 76D12B10 chimera
B1 was tested, and the “NFAT luciferase production, EC50” value [1] was 1.24 nM, the EC50 (human TIGIT-His protein [2]) was 8.57 ng/mL and the binding result (mouse TIGIT protein) was “no binding”. For the same binder, the Kd (human TIGIT-His protein [3]) was 0.0161 nM, the koff (human TIGIT-His protein [3]) was 0.000182 s⁻¹ and the kon (human TIGIT-His protein [3]) was 1.13e+07 M⁻¹ s⁻¹. The Kd (human TIGIT-His protein [4]) was 0.259 nM, the koff (human TIGIT-His protein [4]) was 0.000326 s⁻¹ and the kon (human TIGIT-His protein [4]) was 1.26e+06 M⁻¹ s⁻¹. It also gave an IC50 [5] of 1110 ng/mL, an EC50 (human TIGIT-His protein [6]) of 9.37 ng/mL and an EC50 (human TIGIT-His protein [7]) of 7.6 ng/mL.
